Results on 69 sequences are retold here after the domain aggregation screens of Martell et al. (2025).
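Note: 20 min heating vs room temperature control held 20 min.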

The nature of this data set: soluble fraction after stress (log2 fold change); higher = more stays soluble; pooled small domains, quantitative proteomics. The conditions noted are these: stress: 75 degC.
As to “HMGVMTGAEFVGNTVASVERNLIIDTLKHTMGNRTTAANILGISIRTLRNKLKQYQNEGFDIPE”, the “soluble fraction (log2)” value is -1.11.
For “HMGVPELHKGEIVQAVVEKVLGEGLLRVNLKGMTVEAATSLRLNPGQQLLLRSEGIENGRQVLR”, the “soluble fraction (log2)” value was found to be 0.275.
Turning to “HMGVQKGKDNALAVQQWIAERDATGDFGEYERRGIINRSALFDELGIPRSSMGSNDQIRQMIEAADVRWF”, the “soluble fraction (log2)” value is -0.47.
In the case of “HMGVREIIVQFLEQFDKPKSVQEIVEYVLRYRNTTENSIRSTMYSGSQFRQFDNGYFGLSDKSYPNEYIYA” it was -1.49; in that of “HMGVRLAPEVDRIPYGQMHPNLKKVKDLYEASYKAYVQALSSGNQALAKEKLEEFQSTKARYQRALSAYT”, 0.305.
The result for “HMGVRVEVDAVTPPGAMASGSVVFSDGESKKWSVDQFGRLAMTGGAPDYKPSDQDVMEFQQQLEQSL” reads 0.125; that for “HMGVSAGQVRGLIRNLIAGEDKSKPLSDLALERELEKREIRISRRTVAKYRAELGIPNSDQRRYLP”, -1.68; that for “HMGVSLKEIQENLSLIDDAAQKLASGQGTVDDAVGMGNAGKDIYDNIEGYVSSPKEFINGVLSSV”, -0.0252.
Take “HMGVSVNVQPAILDWAMQKAQMGNAGSSVIEMIAKWISGEKAPTFNQIEDVSKKISIPFGFFFLKEPPIE”: the “soluble fraction (log2)” value is -2.05.
“HMGVTGYPNPTREHITWDDARRIEVWNAYGVPVADLRFARGVLDVAGWPVGTYVARIDGGRSVRFVVI”: the “soluble fraction (log2)” value is -1.05.
As to “HMGVTVDEVHRNFESGMNVVHKKFGAGVVDSFDEGKIRINFDGVIKVFIADVLINSGMLESVSYTH”, the “soluble fraction (log2)” value is -0.832.
In the case of “HMGWEDLVGKTAVVKVALAPVGMVFFRGEFWSAISETGRIEPGEEVTISRIDGLKLYVTKKRIM” it was -3.89; in that of “HMGWEPTPVLVAARDISGGTVLDQDMLRVEAIPSRLVTPSIVRSDLLASVQDAKLLLPMKQGDLLNFNMLQ”, -0.0591.
Regarding “HMGWVMLVIMSRGASEAQINAVVEKIRAAGLTEHLSKGIERTIIGAIGEERKLEPEVFELLPGVEQALHIV”, the “soluble fraction (log2)” value is -2.2.
Consider “HMGYDSYDADTIPKLKIGSIVEHPKFGEGSIISKAGAEVTIAFKIKGVKKINLEYTSIKVLK”, for which the “soluble fraction (log2)” value is -1.67.
The result for “HMGYGEQEQEAQKYLALHALMSQDPTLAKMYQAPNQYKLMSHVMEQNGIKNVNDYLTDPQQLP” reads -0.157.
Turning to “HMGYKDIDKLSGVDLAIYRFIVEHDEQIPYMRVRELARGAHVSNSSVMRFIRKIGYDSFPEFKVSLRS”, the “soluble fraction (log2)” value is -0.0854.
“HMGYPGLGSIGSKPLGDLLFQSKLFVKTKREFAEFKMANNNIVWGRRTQYLVRNYPLSVMEVFL”: the “soluble fraction (log2)” value is -0.0522.
The result for “HMHAGQIISQKIKESGISISHVAKHLKVQRATLYNLFEREVWPAHRLRTIEALLHIDLSDLYP” reads -2.61; that for “HMHANAALTPRQRLRLAQKIVDEEWTVAAAADYFRVSWPTAAKWARRYVELGEAGMADRSSRP”, -2.55; that for “HMHDEKHHQLANEIARKWAALRGNRDFAAADELKNLAAEAGVELQATKQAVGQGALAKLKENFDPVKLEAL”, 0.192.
In the case of “HMHDLDALTGLSGEARSKVYEEGSVFVAGEMWSAKSDAVIPAGSSIRVVRREGFILVVEKDS”, the “soluble fraction (log2)” value was -2.48.
Consider “HMHDYTTIIGVIELRLNKISYDNVQKRYRIGRSGISLIMERYRDSGLSLDDLKQMPAEKVVNLIYPKD”, for which the “soluble fraction (log2)” value is -2.88.
On to “HMHDYYDSIDAVTHDKSYESNLVFALKLGYTETQLQKALLKLGKKAREDQILEELIRIQKSSKA”, for which the “soluble fraction (log2)” value was -0.362.
On to “HMHEGNWTLPNPMPIGTTLTLPEHSRLYISNLAGQRVFETSATSVEIPLLPKGTYLLRLETMNGHTTRKIL”, for which the “soluble fraction (log2)” value was -0.106.
For the sequence “HMHELKIEKVAEAPNGAMRLLLSDGSEWVLGVKSWNRLNLSLEKILDVNVLRALEKESQYHLLRTKALEL”, the “soluble fraction (log2)” value was -1.39.
“HMHFIMEYRIRAYVDELFESAPRTQRAYELKIELTQNLIDKYYALVSEGKSEQDAYNLTVMSIGDVREL”: the “soluble fraction (log2)” value was -3.01.
“HMHGEAVVVPNVKGLPMRQAENEIYKQSLKAVAIDSSYVKGMPPGAILEQNPAGGSKVKKGRTVYLTINMD”: the “soluble fraction (log2)” value is -0.268.
In the case of “HMHGERVVTAGQTVRVVFTSNGLQVSSEGKALAAGAVGDDIQVRAASGKVIRGTVTGPGVVQV” it was 0.233; in that of “HMHGLNQNKPIPIADIVNSVNNYLTSLGKKTITDNSVLSNLKKAAKYLNTAYNLVLRPDSLNMTVTLL”, 0.323.
The result for “HMHIMINPDQLSPEQIQSIRTWAEEGLDLNAIQKRLHEDLNIKLTFMDTRFLLQDLDIRIRQPEPEPEAEQ” reads -0.208; that for “HMHINLEGLKKIDFRKKIGFLFGSEASGLSNKEVSYANYTLQIPTNINFKSLNLSHSLIIIAQFISSLLNS”, -0.55; that for “HMHKIRRQTKITKSLLDQIEGIGSSRKKALLNHFGSAKAVGEAGETDLGTVKGISNSLAKKIYDFFHAT”, -0.545.
In the case of “HMHLDIGQLVQRILADIQVGKLADGQRKLPAEPVLMERYQVTRYTLRQALKQLSNMGYTYQMHGIGTFVRQ” it was -1.79; in that of “HMHLKDEHGLTPKQRAFADEYVITLNATVSYKKIYSVKRDSVASTNGSRLLGNANVKAYIDKRLEE”, -2.26.
Regarding “HMHLKRQEAINLGAYLLGAELRIHRLSLEELGSERIDEMLAAINYKTLDDLLADIGLGNRPARFVARQLG”, the “soluble fraction (log2)” value was -1.86.
The result for “HMHLLGASIAAYRKKAGMTQEDLGRALFVSGQAVSRWERGGTPDSDMLPKIADVLGISLDTLFGRS” reads -1.57; that for “HMHLRYTYIYDNENRVTSKEASKWDSTQEAWVPYFKMNVSYVNNEVELSYARWNSKSNAYDSSIKKTI”, -2.54.
“HMHLTNIPKGFTPSFDTKQWIVEEFGERYNYDNELKIFINHYRASGTTKSDWQYAFRSWLLRAKKFT”: the “soluble fraction (log2)” value is -2.83.
With “HMHLTRYLHTMIRAANLDDTLDFFVEKLGLIEAYRYSNEAGRFTLVFLSAPDDLESAQSRQAPLVEITYN”, the “soluble fraction (log2)” value was -1.32.
The result for “HMHLYDMYNLTEKEISIIRLIANGLNNKEISQELFLSEGTIKNNITNILAKLELRDRTQLAIFAFKNKIVI” reads -3.6; that for “HMHMELHEKIRLARELNKWSQEEVAEKLEMSPSGYAKIERGETALNIPRLEQIAEIFNIDIWELVKA”, -1.04; that for “HMHMHTADDFKQLAKHTSNGRLRTRYLALYHFKKGETRTQIAAYLGVARGSVNTWVSNYLAYGLEGLQS”, -2.53.
With “HMHMIDDYLARIGQLIRDARQHRGWTQVQLAEALGTSQSAVNRIERGNQNISLEMIARIGEALGSEIVSLG”, the “soluble fraction (log2)” value is -2.24.
Take “HMHMKTIEWDSLVLIMYKDMKYLKRINEGQSFHGKGGMLNYADLIGKTYGIRFGQYEIFEPSLEDIVMYG”: the “soluble fraction (log2)” value is -0.0889.
For “HMHMSKKLADSISALRKKNGLSQEQLAEKIGISRQTVSNWERGIATPDVETLNLISKLFDEDLSVMING”, the “soluble fraction (log2)” value was -0.073.
Consider “HMHNISQTGRRIAGMTQERWAEALDISVESVRLYESGRGMPSDDVATRMVEVSGAPVLGYWH”, for which the “soluble fraction (log2)” value is -0.458.
As to “HMHNPSYDMSKDVDILVMKFRDYNNLTDDEARFLLDKAKDAYYNTGKEILSDNEYDTLEKSLGQE”, the “soluble fraction (log2)” value is -0.000671.
In the case of “HMHPEPDPVLFIDGKEYPYDKLSELDETRVQSMTILPKKSAVKKYGDKYANRSIMEITLKKEN” it was 0.119; in that of “HMHPNPLTEQEIAVLKGIAQGLSNQEIADQLYLSNGTVRNYVTNILSKLDAGNRTEAANIAKESGW”, 0.00139; in that of “HMHPSNQELTKVLAQGSELVLAQKYIEASQIFTRVIEIDQTWAEAWNKRATVFYLLQNYEASQKDIDEV”, 0.0525.
For the sequence “HMHQKELLNLSYKEAKRYILDDFERVFFTNLLRKTGGNVSRAAQLAQVHRKNLYVKLTELGIDPRQFG”, the “soluble fraction (log2)” value was -1.53.
Consider “HMHQLQLDSRSRLHMTGVIEVESFDEATIVLTTTRGTLIVRGENLHLQLLRLDGGEVLVDGTVDSLSYE”, for which the “soluble fraction (log2)” value is -2.67.
The result for “HMHQPPDLDDFEAFVGRVKPALLQALVATYGPVDGREATVDALSWAWEHWDRLADVDHPVGYLYRV” reads -0.0172; that for “HMHRFAVLDTVREVAAGGVAATLSIGVGRDADSFDALFKNASMALEMALSRGGDQAVVKDRMNFQFYGG”, 0.153.
Regarding “HMHRGEIVDGVIASVNPRSILIDIGGKSDALVHPRELERMSDEDLRSLKPGQDVSVYVIETDSDGTMLVSL”, the “soluble fraction (log2)” value turned out to be 0.0809.
As to “HMHSEISGGSKDPFRFMPHLGVEDIHAETDRLSGSGVEFIREPDQESWGGWVATFKDPDGNILQLLQL”, the “soluble fraction (log2)” value amounted to 0.197.
With “HMHSQVFTDPDKAKNAVVKLGAPLVVKADGLALGKGVIIAQNPQAAKEAVASVGSSGISSISVT”, the “soluble fraction (log2)” value amounted to 0.126.
For the sequence “HMHTDDDGITEAFPHLRLLSLGEDILDLLEKSRFIRKLNNELVYYVVDFREQNSIDGRRYHPSIYHNL”, the “soluble fraction (log2)” value is -0.437.
As to “HMHTGEVVNGKVIDVKEDQIILNVGFKSDGIITRSEYSNDNSLDLRTVVNVGDDMEAKVLKINDGEGQVLL”, the “soluble fraction (log2)” value is -0.242.
With “HMHTGLAELTDRERDVLRLIATGMTNAAIGSALAYSPSTIRADTVSIYRKLEVRGRAEAAAVAVAAGLTQP”, the “soluble fraction (log2)” value is -1.72.
The result for “HMHTPSGALLSAIEKEWGSFDNFKKEFTTAATSLFGSGWVWLAKDKKGKLYILSENNAGNPITKGYTPILG” reads -0.359; that for “HMHVLNEEYYNRIKAIQFTMNHDDGNSLNDIEKSDIILLGVSRTSKTPTSIYLANRGLRTSNIPLINEK”, -0.655.
As for “HMHVSLADQAYKTIRTNILNLTYPPGTQLTEAKLASDLNMSRSPVRTAIKMLQADGLLVSDYYKSMTVK”, the “soluble fraction (log2)” value is -1.21.
Take “HMHVYSYPAAVKIKNAVGREMMVTLLGRSGTHVQFARQDGEEFVYPISSLDLAAQTLISKYPNDGIKN”: the “soluble fraction (log2)” value was -0.895.
In the case of “HMIAALEGKQAMVLDQVSLHHGQVKLGGEVWTARPLNDQDVYEPGDRVTVMRIDGATAVVWRN” it was -0.472; in that of “HMIAASPVGGIDRVLELLDARGQRVAWIEASGTEGGQRLRLGWIDAQGAERHGAWVPWSADDLLLYA”, -0.739.
On to “HMIAASQVLRDARQRSRLTQAELGRRADVPQSVISAYESARREPSVDMLARLVAAAGFDLRIGLTP”, for which the “soluble fraction (log2)” value was -0.755.
As for “HMIADPLVINKLMDSMALAINDYNPDSVEPVLDELRQYFSENQLRELSKAMDDFDFDEALNALTLLRT”, the “soluble fraction (log2)” value was -0.185.
